Source: patent publication US20200115430A1 (I2O THERAPEUTICS, published 2020)
Starred links: 1 amine or outer side, 2 acyl side, 3 side chain; linkers in the order of their positions; H or OH if unused. Positions of bridges follow the written chain, without caps; N, C: chain ends. Groups on a side chain read outwards from the residue. Primed or numbered codes have the meaning given here. No end group written: not given here. *: point of attachment. dpeg″ = —[CO(CH2)O(CH2)2O(CH2)NH]— spacer unit, O=C(COCCOCN[*:1])[*:2]; C20 diacid = O=C(O)CCCCCCCCCCCCCCCCCCC(=O)*; C18 diacid = O=C(O)CCCCCCCCCCCCCCCCC(=O)*; C17 diacid = O=C(O)CCCCCCCCCCCCCCCC(=O)*; C16 diacid = O=C(O)CCCCCCCCCCCCCCC(=O)*; γGlu = O=C(O)[C@H](CCC(=O)[*:2])N[*:1]

T1: human amylin 3 receptor (human, UniProt P30988 25-474; O60896 24-148)
T1 sequence (looked up) 1: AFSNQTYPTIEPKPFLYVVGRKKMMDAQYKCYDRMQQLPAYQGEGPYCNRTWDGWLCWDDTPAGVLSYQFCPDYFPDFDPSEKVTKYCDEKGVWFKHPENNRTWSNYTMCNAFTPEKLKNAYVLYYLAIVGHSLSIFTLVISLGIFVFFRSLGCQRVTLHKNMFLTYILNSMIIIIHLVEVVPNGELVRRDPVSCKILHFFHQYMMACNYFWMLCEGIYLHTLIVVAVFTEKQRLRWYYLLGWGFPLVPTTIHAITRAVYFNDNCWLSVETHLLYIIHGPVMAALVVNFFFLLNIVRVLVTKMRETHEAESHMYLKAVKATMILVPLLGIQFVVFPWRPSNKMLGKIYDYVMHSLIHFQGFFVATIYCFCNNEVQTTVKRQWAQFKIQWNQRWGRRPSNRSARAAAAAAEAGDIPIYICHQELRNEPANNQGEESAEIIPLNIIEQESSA
T1 sequence (looked up) 2: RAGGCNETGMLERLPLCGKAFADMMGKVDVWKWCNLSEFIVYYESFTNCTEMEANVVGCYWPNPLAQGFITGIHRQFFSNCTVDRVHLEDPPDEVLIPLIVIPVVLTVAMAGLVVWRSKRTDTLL

T2: human calcitonin receptor (human, UniProt P30988 25-474)
T2 sequence (looked up): T1 sequence (looked up) 1

B1: Compound A79 (peptide)
peptide: SCNTSTCATQRLANEK(C17 diacid)HKSSNNFGPILPPTKVGSETY-NH2
modifications: disulfide 2-7; N-terminus assumed
SMILES: CC[C@H](C)[C@H](NC(=O)[C@@H]1CCCN1C(=O)CNC(=O)[C@H](Cc1ccccc1)NC(=O)[C@H](CC(N)=O)NC(=O)[C@H](CC(N)=O)NC(=O)[C@H](CO)NC(=O)[C@H](CO)NC(=O)[C@H](CCCCN)NC(=O)[C@H](Cc1c[nH]cn1)NC(=O)[C@H](CCCCNC(=O)CCCCCCCCCCCCCCCC(=O)O)NC(=O)[C@H](CCC(=O)O)NC(=O)[C@H](CC(N)=O)NC(=O)[C@H](C)NC(=O)[C@H](CC(C)C)NC(=O)[C@H](CCCNC(=N)N)NC(=O)[C@H](CCC(N)=O)NC(=O)[C@@H](NC(=O)[C@H](C)NC(=O)[C@@H]1CSSC[C@H](NC(=O)[C@@H](N)CO)C(=O)N[C@@H](CC(N)=O)C(=O)N[C@@H]([C@@H](C)O)C(=O)N[C@@H](CO)C(=O)N[C@@H]([C@@H](C)O)C(=O)N1)[C@@H](C)O)C(=O)N[C@@H](CC(C)C)C(=O)N1CCC[C@H]1C(=O)N1CCC[C@H]1C(=O)N[C@H](C(=O)N[C@@H](CCCCN)C(=O)N[C@H](C(=O)NCC(=O)N[C@@H](CO)C(=O)N[C@@H](CCC(=O)O)C(=O)N[C@H](C(=O)N[C@@H](Cc1ccc(O)cc1)C(N)=O)[C@@H](C)O)C(C)C)[C@@H](C)O
B2: Compound A5 (peptide)
peptide: SCNTSTCATQRLANEKHKSSNNFGPILPPTKVGSETY
modifications: L-Lys 16 acylated: K*(γGlu-dpeg-dpeg-(γGlu)4-CO(CH2)14CH3); disulfide bridge Cys2-Cys7; C-terminal amide
B3: Compound A112 (peptide)
peptide: K([γGlu-γGlu-dpeg″-dpeg″-γGlu-C20 diacid])CNTSTCATQRLANELHKSSNNFGPILPPTKVGSETY-NH2
modifications: disulfide 2-7
B4: Compound A80 (peptide)
peptide: SCNTSTCATQRLANEK([γGlu-C17 diacid])HKSSNNFGPILPPTKVGSETY-NH2
modifications: disulfide 2-7; N-terminus assumed
SMILES: CC[C@H](C)[C@H](NC(=O)[C@@H]1CCCN1C(=O)CNC(=O)[C@H](Cc1ccccc1)NC(=O)[C@H](CC(N)=O)NC(=O)[C@H](CC(N)=O)NC(=O)[C@H](CO)NC(=O)[C@H](CO)NC(=O)[C@H](CCCCN)NC(=O)[C@H](Cc1c[nH]cn1)NC(=O)[C@H](CCCCNC(=O)CC[C@H](NC(=O)CCCCCCCCCCCCCCCC(=O)O)C(=O)O)NC(=O)[C@H](CCC(=O)O)NC(=O)[C@H](CC(N)=O)NC(=O)[C@H](C)NC(=O)[C@H](CC(C)C)NC(=O)[C@H](CCCNC(=N)N)NC(=O)[C@H](CCC(N)=O)NC(=O)[C@@H](NC(=O)[C@H](C)NC(=O)[C@@H]1CSSC[C@H](NC(=O)[C@@H](N)CO)C(=O)N[C@@H](CC(N)=O)C(=O)N[C@@H]([C@@H](C)O)C(=O)N[C@@H](CO)C(=O)N[C@@H]([C@@H](C)O)C(=O)N1)[C@@H](C)O)C(=O)N[C@@H](CC(C)C)C(=O)N1CCC[C@H]1C(=O)N1CCC[C@H]1C(=O)N[C@H](C(=O)N[C@@H](CCCCN)C(=O)N[C@H](C(=O)NCC(=O)N[C@@H](CO)C(=O)N[C@@H](CCC(=O)O)C(=O)N[C@H](C(=O)N[C@@H](Cc1ccc(O)cc1)C(N)=O)[C@@H](C)O)C(C)C)[C@@H](C)O
B5: Compound A88 (peptide)
peptide: SCNTSTCATQRLANEK([γGlu-C16 diacid])HKSSNNFGPILPPTKVGSETY-NH2
modifications: disulfide 2-7; N-terminus assumed
SMILES: CC[C@H](C)[C@H](NC(=O)[C@@H]1CCCN1C(=O)CNC(=O)[C@H](Cc1ccccc1)NC(=O)[C@H](CC(N)=O)NC(=O)[C@H](CC(N)=O)NC(=O)[C@H](CO)NC(=O)[C@H](CO)NC(=O)[C@H](CCCCN)NC(=O)[C@H](Cc1c[nH]cn1)NC(=O)[C@H](CCCCNC(=O)CC[C@H](NC(=O)CCCCCCCCCCCCCCC(=O)O)C(=O)O)NC(=O)[C@H](CCC(=O)O)NC(=O)[C@H](CC(N)=O)NC(=O)[C@H](C)NC(=O)[C@H](CC(C)C)NC(=O)[C@H](CCCNC(=N)N)NC(=O)[C@H](CCC(N)=O)NC(=O)[C@@H](NC(=O)[C@H](C)NC(=O)[C@@H]1CSSC[C@H](NC(=O)[C@@H](N)CO)C(=O)N[C@@H](CC(N)=O)C(=O)N[C@@H]([C@@H](C)O)C(=O)N[C@@H](CO)C(=O)N[C@@H]([C@@H](C)O)C(=O)N1)[C@@H](C)O)C(=O)N[C@@H](CC(C)C)C(=O)N1CCC[C@H]1C(=O)N1CCC[C@H]1C(=O)N[C@H](C(=O)N[C@@H](CCCCN)C(=O)N[C@H](C(=O)NCC(=O)N[C@@H](CO)C(=O)N[C@@H](CCC(=O)O)C(=O)N[C@H](C(=O)N[C@@H](Cc1ccc(O)cc1)C(N)=O)[C@@H](C)O)C(C)C)[C@@H](C)O
B6: Compound A75 (peptide)
peptide: SCNTSTCATQRLANEK(C20 diacid)HKSSNNFGPILPPTKVGSETY-NH2
modifications: disulfide 2-7; N-terminus assumed
SMILES: CC[C@H](C)[C@H](NC(=O)[C@@H]1CCCN1C(=O)CNC(=O)[C@H](Cc1ccccc1)NC(=O)[C@H](CC(N)=O)NC(=O)[C@H](CC(N)=O)NC(=O)[C@H](CO)NC(=O)[C@H](CO)NC(=O)[C@H](CCCCN)NC(=O)[C@H](Cc1c[nH]cn1)NC(=O)[C@H](CCCCNC(=O)CCCCCCCCCCCCCCCCCCC(=O)O)NC(=O)[C@H](CCC(=O)O)NC(=O)[C@H](CC(N)=O)NC(=O)[C@H](C)NC(=O)[C@H](CC(C)C)NC(=O)[C@H](CCCNC(=N)N)NC(=O)[C@H](CCC(N)=O)NC(=O)[C@@H](NC(=O)[C@H](C)NC(=O)[C@@H]1CSSC[C@H](NC(=O)[C@@H](N)CO)C(=O)N[C@@H](CC(N)=O)C(=O)N[C@@H]([C@@H](C)O)C(=O)N[C@@H](CO)C(=O)N[C@@H]([C@@H](C)O)C(=O)N1)[C@@H](C)O)C(=O)N[C@@H](CC(C)C)C(=O)N1CCC[C@H]1C(=O)N1CCC[C@H]1C(=O)N[C@H](C(=O)N[C@@H](CCCCN)C(=O)N[C@H](C(=O)NCC(=O)N[C@@H](CO)C(=O)N[C@@H](CCC(=O)O)C(=O)N[C@H](C(=O)N[C@@H](Cc1ccc(O)cc1)C(N)=O)[C@@H](C)O)C(C)C)[C@@H](C)O
B7: Compound A65 (peptide)
peptide: K([γGlu-γGlu-C18 diacid])CNTSTCATQRLANELHKSSNNFGPILPPTKVGSETY-NH2
modifications: disulfide 2-7; N-terminus assumed
SMILES: CC[C@H](C)[C@H](NC(=O)[C@@H]1CCCN1C(=O)CNC(=O)[C@H](Cc1ccccc1)NC(=O)[C@H](CC(N)=O)NC(=O)[C@H](CC(N)=O)NC(=O)[C@H](CO)NC(=O)[C@H](CO)NC(=O)[C@H](CCCCN)NC(=O)[C@H](Cc1c[nH]cn1)NC(=O)[C@H](CC(C)C)NC(=O)[C@H](CCC(=O)O)NC(=O)[C@H](CC(N)=O)NC(=O)[C@H](C)NC(=O)[C@H](CC(C)C)NC(=O)[C@H](CCCNC(=N)N)NC(=O)[C@H](CCC(N)=O)NC(=O)[C@@H](NC(=O)[C@H](C)NC(=O)[C@@H]1CSSC[C@H](NC(=O)[C@@H](N)CCCCNC(=O)CC[C@H](NC(=O)CC[C@H](NC(=O)CCCCCCCCCCCCCCCCC(=O)O)C(=O)O)C(=O)O)C(=O)N[C@@H](CC(N)=O)C(=O)N[C@@H]([C@@H](C)O)C(=O)N[C@@H](CO)C(=O)N[C@@H]([C@@H](C)O)C(=O)N1)[C@@H](C)O)C(=O)N[C@@H](CC(C)C)C(=O)N1CCC[C@H]1C(=O)N1CCC[C@H]1C(=O)N[C@H](C(=O)N[C@@H](CCCCN)C(=O)N[C@H](C(=O)NCC(=O)N[C@@H](CO)C(=O)N[C@@H](CCC(=O)O)C(=O)N[C@H](C(=O)N[C@@H](Cc1ccc(O)cc1)C(N)=O)[C@@H](C)O)C(C)C)[C@@H](C)O

Biological target: T1, human amylin 3 receptor
Experiment: cell-based or functional assay

Binder	pEC50 (cAMP accumulation), 0% HSA	pEC50 (cAMP accumulation), 0.1% HSA	pEC50 (cAMP accumulation), 4% HSA
B1	11.5 pEC50	10.4 pEC50	9.4 pEC50
B2	12.3 pEC50	10.8 pEC50	9.2 pEC50
B3	11.6 pEC50	9.3 pEC50	8 pEC50
B4	11.3 pEC50	10.4 pEC50	8.7 pEC50
B5	10.8 pEC50	10.1 pEC50	8.7 pEC50
B6	11.9 pEC50	10.5 pEC50	8.9 pEC50
B7	11.5 pEC50	10.1 pEC50	8.7 pEC50

Biological target: T2, human calcitonin receptor
Experiment: cell-based or functional assay

Binder	pEC50 (cAMP accumulation), 0% HSA	pEC50 (cAMP accumulation), 0.1% HSA	pEC50 (cAMP accumulation), 4% HSA
B1	10.3 pEC50	9.9 pEC50	9.5 pEC50
B2	10.8 pEC50	9.5 pEC50	7.8 pEC50
B3	10.9 pEC50	8.5 pEC50	7.5 pEC50
B4	10.2 pEC50	9.2 pEC50	7.7 pEC50
B5	9.8 pEC50	9 pEC50	7.8 pEC50
B6	10.8 pEC50	10 pEC50	7.7 pEC50
B7	10.5 pEC50	9 pEC50	7.9 pEC50
